Results taken from paper PMC2191977 (The Journal of Experimental Medicine, 1995).
Numbering of substitutions follows the chain as printed.

How the values were obtained:
Experiment in all cases: flow cytometry on cells
[1] = target: T1, B7 LE/VD (L179V, E180D) (mouse, UniProt Q00609 38-306, L179E180>VD)
T1 sequence (looked up): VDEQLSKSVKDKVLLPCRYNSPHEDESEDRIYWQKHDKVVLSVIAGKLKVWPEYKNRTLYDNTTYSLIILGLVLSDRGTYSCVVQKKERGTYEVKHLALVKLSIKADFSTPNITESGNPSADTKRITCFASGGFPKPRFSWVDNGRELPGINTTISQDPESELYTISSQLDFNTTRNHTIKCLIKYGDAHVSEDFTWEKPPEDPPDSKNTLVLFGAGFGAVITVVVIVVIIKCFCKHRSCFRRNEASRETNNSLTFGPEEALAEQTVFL

[2] = target: T2, B7 QD/LE (Q194L, D195E) (mouse, UniProt Q00609 38-306, Q194D195>LE)
T2 sequence (looked up): T1 sequence (looked up) with V142L, D143E, Q157L, D158E

[3] = target: T3, B7 QDP/LEH (Q194L, D195E, P196H) (mouse, UniProt Q00609 38-306, Q194D195P196>LEH)
T3 sequence (looked up): T1 sequence (looked up) with V142L, D143E, Q157L, D158E, P159H

[4] = target: T4, B7 P172A (mouse, UniProt Q00609 38-306, P172A)
T4 sequence (looked up): T1 sequence (looked up) with P135A, V142L, D143E

[5] = target: T5, B7 K173E (mouse, UniProt Q00609 38-306, K173E)
T5 sequence (looked up): T1 sequence (looked up) with K136E, V142L, D143E

[6] = target: T6, B7 R175S (mouse, UniProt Q00609 38-306, R175>S (CGC>AGC))
T6 sequence (looked up): T1 sequence (looked up) with R138S, V142L, D143E

B1: CD28Ig (Fc fusion, mouse, UniProt P31041 20-150, looked up)
chain: NKILVKQSPLLVVDSNEVSLSCRYSYNLLAKEFRASLYKGVNSDVEVCVGNGNFTYQPQFRSNAEFNCDGDFDNETVTFRLWNLHVNHTDIYFCKIEFMYPPPYLDNERSNGTIIHIKEKHLCHTQSSPKL
Q: With B1 as the binder, how does the “% wild-type B7 binding (normalised to anti-B7 mAb 10.16A.1)” value [1] read?
A: The value was 40%.

Q: What about the “MF (mean fluorescence, control subtracted)” value (shortened to “MF”) [1] of the same binder?
A: Its value is 16 MF.

Q: What about the “% wild-type B7 binding (normalised to anti-B7 mAb 10.16A.1)” value [2] of the same binder?
A: Its value is 11%.

Q: And the “MF” value [2]?
A: Its value is 3 MF.

Q: What about the “% wild-type B7 binding (normalised to anti-B7 mAb 10.16A.1)” value [3] of the same binder?
A: The value was 3%.

Q: And the “MF” value [3]?
A: Its value is 1 MF.

Q: And the “% wild-type B7 binding (normalised to anti-B7 mAb 10.16A.1)” value [4]?
A: The value was 7%.

Q: What about the “MF” value [4] of the same binder?
A: Its value is 2 MF.

Q: What about the “% wild-type B7 binding (normalised to anti-B7 mAb 10.16A.1)” value [5] of the same binder?
A: Its value is 77%.

Q: What about the “MF” value [5] of the same binder?
A: Its value is 44 MF.

Q: And the “% wild-type B7 binding (normalised to anti-B7 mAb 10.16A.1)” value [6]?
A: Its value is 26%.

Q: And the “MF” value [6]?
A: The value was 15 MF.
